Source: patent US20230057263A1 (CYTOMX THERAPEUTICS, published 2023)
No end group written: not given here. *: point of attachment. Biotin = O=C1N[C@H]2[C@H](CS[C@H]2CCCCC(=O)*)N1; code X = not defined here; linker = not defined here

Legend:
Assay in all cases: Luminex bead assay, 1 ug/ml antibody [Cont.]
B X QDGNEEMGGATQTP = biological target: T1, B X QDGNEEMGGATQTP (reading uncertain)
T1 construct: row 24 of the chart; 14 residues; also called alanine-scan peptide I10A
T1 peptide: {Biotin-code X}-QDGNEEMGGATQTP
Procedure: (§1) A set of experiments was performed to map the epitope recognized by the anti-CD3ε antibodies. In these experiments, the anti-CD3ε antibodies were assessed for binding to a collection of overlapping 15-mer peptides spanning amino acids 1-27 of human CD3ε protein using a Luminex bead assay. Control CD3 proteins, control peptides, or the test peptides were immobilized on Luminex beads and incubated with a panel of anti-CD3 antibodies. Binding of the anti-CD3 antibodies to the peptide/protein immobilized on the Luminex bead was detected by R-Phycoerythrin conjugated secondary antibody.
(§2) Recombinant CD3 proteins (human CD3d/e heterodimer and cynomolgus CD3-epsilon (Sinobiological)) and control peptides (#p1, #p2, and #p3) were conjugated to Luminex beads using standard EDC/Sulfo-NHS chemistry. The 15-mer test peptides were synthesized as biotinylated peptides at JPT Peptide Technologies Gmbh and were immobilized on streptavidin-conjugated Luminex beads that were made using standard EDC/Sulfo-NHS chemistry and streptavidin (Invitrogen Cat. No. 434301 lot 1626028A). The Luminex beads with immobilized peptides or reagents were incubated with 50 ul of a panel of anti-CD3 antibodies (1 ug/ml) for one hour at room temperature, washed two times, incubated with mixture of anti-human and anti-mouse IgG-RPE (Jackson Immunoresearch 109-116-097 and Southern Biotech 1030-09, respectively) for 30 mins at RT, washed three times, and analyzed in the Luminex instrument to assess the level of bound anti-CD3 antibodies.

B X QDANEEMGGITQTP = biological target: T2, B X QDANEEMGGITQTP (reading uncertain)
T2 construct: row 17 of the chart; 14 residues; also called alanine-scan peptide G3A
T2 peptide: {Biotin-code X}-QDANEEMGGITQTP
Procedure: as §1, §2

huCD3d/eCHO-E DT1331 = biological target: T3, huCD3d/eCHO-E DT1331 (human, UniProt P04234)
T3 construct: recombinant, part of a CD3 delta/epsilon heterodimer; coupled to Luminex beads
T3 sequence (P04234 22-105): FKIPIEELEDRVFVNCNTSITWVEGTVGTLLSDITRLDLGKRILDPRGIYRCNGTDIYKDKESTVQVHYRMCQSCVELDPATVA
Procedure: as §1, §2

[1] = biological target: T4, biotinylated 15-mer peptide corresponding to the CD3ε N-terminus (human, UniProt P07766 22-36, limits assumed, not fully specified; reading uncertain)
T4 construct: domain: N-terminal 15-mer; Immobilised on streptavidin-conjugated Luminex beads; The text says 'peptides' in the plural, so more than one overlapping N-terminal 15-mer may be meant; also called N-terminal 15-mer; biotinylated N-terminal 15-mer
T4 peptide (looked up): {Biotin-linker}-QDGNEEMGGITQTPY
Procedure: as §1, §2

B X QDGNEAMGGITQTP = biological target: T5, B X QDGNEAMGGITQTP (reading uncertain)
T5 construct: row 20 of the chart; 14 residues; also called alanine-scan peptide E6A
T5 peptide: {Biotin-code X}-QDGNEAMGGITQTP
Procedure: as §1, §2

B X QAGNEEMGGITQTP = biological target: T6, B X QAGNEEMGGITQTP (reading uncertain)
T6 construct: row 16 of the chart; also called alanine-scan peptide D2A
T6 peptide: {Biotin-code X}-QAGNEEMGGITQTP
Procedure: as §1, §2

B X TQTPYKVSISGTTVI = biological target: T7, B X TQTPYKVSISGTTVI (reading uncertain)
T7 construct: row 12 of the chart; also called biotinylated 15-mer, residues 11-25
T7 peptide: {Biotin-code X}-TQTPYKVSISGTTVI
Procedure: as §1, §2

B X QDGNEEMGGIAQTP = biological target: T8, B X QDGNEEMGGIAQTP (reading uncertain)
T8 construct: row 25 of the chart; 14 residues; also called alanine-scan peptide T11A
T8 peptide: {Biotin-code X}-QDGNEEMGGIAQTP
Procedure: as §1, §2

vCD3e #p1 peptide = biological target: T9, vCD3e #p1 peptide
T9 construct: also called control peptide #p1
Procedure: as §1, §2

B X EEMGGITQTPYKVSI = biological target: T10, B X EEMGGITQTPYKVSI (reading uncertain)
T10 construct: row 6 of the chart; also called biotinylated 15-mer, residues 5-19
T10 peptide: {Biotin-code X}-EEMGGITQTPYKVSI
Procedure: as §1, §2

[2] = biological target: T11, (H2N-KEFSELEQSGYYVCYPRGSNPEDA-OH) vCD3e #p3-BSA (conjugated to BSA)
T11 construct: also called control peptide #p3
T11 peptide: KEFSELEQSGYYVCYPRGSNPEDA
Procedure: as §1, §2

B X ITQTPYKVSISGTTV = biological target: T12, B X ITQTPYKVSISGTTV (reading uncertain)
T12 construct: row 11 of the chart; also called biotinylated 15-mer, residues 10-24
T12 peptide: {Biotin-code X}-ITQTPYKVSISGTTV
Procedure: as §1, §2

B X ADGNEEMGGITQTPY = biological target: T13, B X ADGNEEMGGITQTPY (reading uncertain)
T13 construct: row 15 of the chart; also called alanine-scan peptide Q1A
T13 peptide: {Biotin-code X}-ADGNEEMGGITQTPY
Procedure: as §1, §2

B X QDGAEEMGGITQTP = biological target: T14, B X QDGAEEMGGITQTP (reading uncertain)
T14 construct: row 18 of the chart; 14 residues; also called alanine-scan peptide N4A
T14 peptide: {Biotin-code X}-QDGAEEMGGITQTP
Procedure: as §1, §2

B X QDGNAEMGGITQTP = biological target: T15, B X QDGNAEMGGITQTP (reading uncertain)
T15 construct: row 19 of the chart; 14 residues; also called alanine-scan peptide E5A
T15 peptide: {Biotin-code X}-QDGNAEMGGITQTP
Procedure: as §1, §2

B X MGGITQTPYKVSISG = biological target: T16, B X MGGITQTPYKVSISG (reading uncertain)
T16 construct: row 8 of the chart; also called biotinylated 15-mer, residues 7-21
T16 peptide: {Biotin-code X}-MGGITQTPYKVSISG
Procedure: as §1, §2

B X EMGGITQTPYKVSIS = biological target: T17, B X EMGGITQTPYKVSIS (reading uncertain)
T17 construct: row 7 of the chart; also called biotinylated 15-mer, residues 6-20
T17 peptide: {Biotin-code X}-EMGGITQTPYKVSIS
Procedure: as §1, §2

B X DGNEEMGGITQTPYK = biological target: T18, B X DGNEEMGGITQTPYK (reading uncertain)
T18 construct: row 3 of the chart; also called biotinylated 15-mer, residues 2-16
T18 peptide: {Biotin-code X}-DGNEEMGGITQTPYK
Procedure: as §1, §2

B X QTPYKVSISGTTVIL = biological target: T19, B X QTPYKVSISGTTVIL (reading uncertain)
T19 construct: row 13 of the chart; also called biotinylated 15-mer, residues 12-26
T19 peptide: {Biotin-code X}-QTPYKVSISGTTVIL
Procedure: as §1, §2

Luminex signal (B X QDGNEEMGGATQTP): 2630 | Luminex signal (B X QDANEEMGGITQTP): 32.5 | Luminex signal (huCD3d/eCHO-E DT1331): 23200 | Luminex signal [1]: 3160 | Luminex signal (B X QDGNEAMGGITQTP): 1480 | Luminex signal (B X QAGNEEMGGITQTP): 45 | Luminex signal (B X TQTPYKVSISGTTVI): 47.5 | Luminex signal (B X QDGNEEMGGIAQTP): 2910 | Luminex signal (vCD3e #p1 peptide): 20300 | Luminex signal (B X EEMGGITQTPYKVSI): 43 | Luminex signal [2]: 473 | Luminex signal (B X ITQTPYKVSISGTTV): 29.5 | Luminex signal (B X ADGNEEMGGITQTPY): 11300 | Luminex signal (B X QDGAEEMGGITQTP): 48 | Luminex signal (B X QDGNAEMGGITQTP): 483 | Luminex signal (B X MGGITQTPYKVSISG): 26.5 | Luminex signal (B X EMGGITQTPYKVSIS): 44.5 | Luminex signal (B X DGNEEMGGITQTPYK): 404
B1: 6d59 (antibody, V domains shown)
VH: QVHLVESGGGVVQPGRSLRLSCAASGFKFRSYGMHWVRQAPGKGLEWVAIIWYDGSKRYYADSVKGRFTISRDNSKNTLYLQMSSLRAEDTAVYYCARDLITGTTDYWGQGTLVTVSS
VL: DVVMTQSPLSLPVTLGQPASISCRSSRSLVYSDGNTHLIWFQQRPGQSPRRLIYRVSNRVSGVPDRFSGSGSGTDFTLKISRVEAEDVGVYYCLQGAHWPYTFGQGTKLEIKR
notes: also called 6d59.1; VCD3-6d59.1
Luminex signal (B X QTPYKVSISGTTVIL): 31.5
